{"source": "paper PMC1405823", "system": "BsSSB (6xHis-tagged, as purified) (Bacillus subtilis)", "assay": "EMSA", "details": "100 mM Tris-HCl pH 7.5, 10 min at 37 °C, 12.5% native PAGE", "data": [{"substance": "50-base random sequence ssDNA", "values": [{"measurement": "binding signal (% probe shifted)", "value": 50}]}]}
